Measurements as given in US20220340682A1 (Sanofi, published 2022).
Changes are numbered by the printed parent chain.

T1: cCEACAM5 A3B3, M. fascicularis CEACAM5 A3-B3 domain (499-688) (Macaca fascicularis)
T1 construct: Followed by 24 amino acid extension containing a His-Tag; also called cynomolgus CEACAM5 A3-B3
T1 chain: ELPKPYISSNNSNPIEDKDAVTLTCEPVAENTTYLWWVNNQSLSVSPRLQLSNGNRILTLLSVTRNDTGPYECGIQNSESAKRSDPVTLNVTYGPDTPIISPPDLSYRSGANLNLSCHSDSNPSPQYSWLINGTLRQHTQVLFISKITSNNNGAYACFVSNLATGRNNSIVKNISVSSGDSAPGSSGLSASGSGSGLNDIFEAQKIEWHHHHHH

T2: hCEACAM5, human CEACAM5 ECD (35-685) (human, UniProt P06731 35-685)
T2 construct: produced in HEK293; also called human CEACAM5 protein; human CEACAM5 extracellular domain
T2 sequence: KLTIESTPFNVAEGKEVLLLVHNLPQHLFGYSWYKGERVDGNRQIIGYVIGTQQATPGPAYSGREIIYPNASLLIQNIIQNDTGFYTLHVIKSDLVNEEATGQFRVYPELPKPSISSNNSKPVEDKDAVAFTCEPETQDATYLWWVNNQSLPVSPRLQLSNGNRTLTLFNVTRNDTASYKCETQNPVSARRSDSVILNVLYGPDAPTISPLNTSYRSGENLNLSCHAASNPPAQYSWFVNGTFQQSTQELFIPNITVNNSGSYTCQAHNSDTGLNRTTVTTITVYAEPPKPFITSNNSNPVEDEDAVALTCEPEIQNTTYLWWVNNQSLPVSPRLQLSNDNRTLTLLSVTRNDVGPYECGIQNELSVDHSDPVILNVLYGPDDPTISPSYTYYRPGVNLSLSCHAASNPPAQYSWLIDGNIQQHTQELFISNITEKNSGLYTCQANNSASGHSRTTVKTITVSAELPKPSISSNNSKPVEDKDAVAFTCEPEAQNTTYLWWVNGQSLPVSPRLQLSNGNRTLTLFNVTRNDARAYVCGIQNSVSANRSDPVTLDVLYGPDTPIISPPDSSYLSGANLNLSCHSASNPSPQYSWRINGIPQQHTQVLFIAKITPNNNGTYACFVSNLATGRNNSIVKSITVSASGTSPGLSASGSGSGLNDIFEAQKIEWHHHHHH

T3: cCEACAM5, M. fascicularis CEACAM5 ECD (35-688) (Macaca fascicularis)
T3 construct: ECD followed by a 24 amino acid extension containing a His-Tag; also called cynomolgus CEACAM5; monkey CEACAM5
T3 chain: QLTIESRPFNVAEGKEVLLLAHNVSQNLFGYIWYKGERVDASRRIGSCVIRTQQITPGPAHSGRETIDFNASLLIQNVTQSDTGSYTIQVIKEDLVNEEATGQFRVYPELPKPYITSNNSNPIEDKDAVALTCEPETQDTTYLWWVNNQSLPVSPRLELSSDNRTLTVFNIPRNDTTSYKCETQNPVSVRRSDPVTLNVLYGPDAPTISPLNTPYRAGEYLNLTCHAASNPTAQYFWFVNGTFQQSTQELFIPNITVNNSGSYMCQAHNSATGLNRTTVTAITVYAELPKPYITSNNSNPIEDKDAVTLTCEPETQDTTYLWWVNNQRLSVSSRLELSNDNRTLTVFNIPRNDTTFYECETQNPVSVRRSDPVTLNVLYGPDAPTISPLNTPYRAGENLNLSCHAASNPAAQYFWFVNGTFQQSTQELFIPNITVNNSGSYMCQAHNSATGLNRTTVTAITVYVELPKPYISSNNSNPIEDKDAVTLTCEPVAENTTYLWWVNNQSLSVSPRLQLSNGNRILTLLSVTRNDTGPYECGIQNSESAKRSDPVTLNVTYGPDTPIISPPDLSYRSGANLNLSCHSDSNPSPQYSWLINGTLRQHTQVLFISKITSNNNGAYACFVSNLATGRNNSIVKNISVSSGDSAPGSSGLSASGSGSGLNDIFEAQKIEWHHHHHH

B1: antibody MAb4 (antibody, IgG1, V domains shown)
VH: EVQLVESGGGLVKPGGSLKLSCAASGFTFSSYDMSWVRQTPEKRLEWVAFISSYGGRTYYADTVKGRFTISRDNAKNTLYLQMSSLKSEDTAMFYCAAHYFGTSGPFAYWGQGTLVTVSA
VL: DIQMTQSPASLSASVGETVTITCRASENIYSYFAWYQQKQGKSPQLLVYNAKILAEGVPSRFSGSGSGTQFSLKINSLQPEDFGTYYCQHHYGIPFTFGSGTKLELK
notes: Murine monoclonal from hybridoma, IgG1, kappa
B2: antibody MAb5 (antibody, IgG1, V domains shown)
VH: ELQLVESGGVLVKPGGSLKLSCAASGFAFSSYDMSWVRQTPEKRLEWVTYINSGGGITYYPDTVKGRFTISRDNARNTLYLQMSSLKSEDTAIYYCTAHYFGSSGPFAYWGQGTLVTVSA
VL: B1 VL with F33L, I53T, A55T, T85S, I94T, L106I
notes: as for B1
B3: antibody MAb1 (antibody, IgG1, V domains shown)
VH: EVMLVESGGGLVKPGGSLKLSCAASGFTFSSYAMSWVRQTPEKRLEWVATISSGGSYIYYLDSVKGRFTISRDNAKNTLYLQMSSLRSEDTAMYYCARPAYYGNPAMDYWGQGTSVTVSS
VL: DILMTQSQKFMSTSVGDRVSVTCKASQNVGTNVAWYQQKPGQSPKPLIYSASYRYSGVPDRFTGSGSGTDFTLTISNVQSEDLAEYFCQQYNSYPLYTFGGGTKLEIK
B4: antibody MAb3 (antibody, IgG1, V domains shown)
VH: EVKLVESGGGLVKPGGSLTLPCAASGFTFSRYAMSWVRQTPEKRLEWVASISSGGDTYYPDSVKGRFTVSRDNARNILFLQMSSLRSEDTGMYYCARVNYYDSSFLDWWGQGTTLTVSS
VL: B3 VL with L3V, K9R, S14L, V15E, P46A, S93N
notes: as for B1
B5: huMAb2-3 (antibody, human IgG1, kappa, V domains shown)
VH: EVQLQESGPGLVKPGGSLSLSCAASGFVFSSYDMSWVRQTPERGLEWVAYISSGGGITYAPSTVKGRFTVSRDNAKNTLYLQMNSLTSEDTAVYYCAAHYFGSSGPFAYWGQGTLVTVSS
VL: DIQMTQSPASLSASVGDRVTITCRASENIFSYLAWYQQKPGKSPKLLVYNTRTLAEGVPSRFSGSGSGTDFSLTISSLQPEDFATYYCQHHYGTPFTFGSGTKLEIKR
notes: Humanized MAb2, human IgG1 / Ckappa; also called MAb2_VL1cVH1a-IgG1
B6: huMAb2-1 (antibody, V domains shown)
VH: B5 VH with G44R, A60F, V93I, S120A
VL: DIQMTQSPASLSASVGDTVTITCRASENIFSYLAWYQQKPGKSPKLLVYNTKTLAEGVPSRFSGSGSGTQFSLTISSLQPEDFGSYYCQHHYGTPFTFGSGTKLEIK
notes: Humanized MAb2 (VL1 + VH1) fused to human IgG1 and human Ckappa constant domains; also called MAb2_VL1VH1-IgG1; MAb2VL1VH1-IgG1
B7: huMAb2-2 (antibody, V domains shown)
VH: B5 VH
VL: B6 VL with T18R, Q70D, G84A, S85T
notes: Humanized MAb2 (VL1a + VH1a) fused to human IgG1 and human Ckappa constant domains; also called MAb2_VL1aVH1a-IgG1; MA2_VL1aVH1a-IgG1
B8: chMAb2 (antibody, human IgG1, kappa, V domains shown)
VH: EVQLQESGGVLVKPGGSLKLSCAASGFVFSSYDMSWVRQTPEKRLEWVAYISSGGGITYFPDTVQGRFTVSRDNAKNTLYLQMNSLKSEDTAIYYCAAHYFGSSGPFAYWGQGTLVTVSA
VL: B5 VL with D17E, R18T, P40Q, K45Q, R52K, D70Q, T74K, S76N, A84G, T85S
notes: Chimeric, human IgG1, Ck isotype; also called MAb2-IgG1; chimeric MAb2
B9: huMAb2-4 (antibody, human IgG1, kappa, V domains shown)
VH: B5 VH with G44R, A60F, V93I, S120A
VL: B5 VL with R18T, D70Q, A84G, T85S
notes: Humanized MAb2, human IgG1 / Ckappa; also called MAb2_VL1d VH1-IgG1; MAb2_VL1dVH1-IgG1

Target: T1, cCEACAM5 A3B3, M. fascicularis CEACAM5 …
Test: ELISA on coated recombinant CEACAM5 protein or domain, anti-mouse IgG-HRP, OD 450 nm
Description: Domain mapping of anti-CEACAM5 antibodies to human CEACAM5 and cynomolgus CEACAM5 proteins was determined by ELISA. […] Purified antibodies were added to the plates and detected by using rabbit anti-mouse IgG conjugated with horseradish peroxidase (Sigma; #A9044). Antibody binding was visualized by adding TMB-H2O2 buffer and read at a wavelength of 450 nm.

Row | binding result | Binder
1 | binds | B1
2 | binds | B2
3 | binds | B3
4 | binds | B4

target: T2, hCEACAM5, human CEACAM5 ECD (35-685); test: ELISA, coated CEACAM5
Description: (§1) All CEACAM5-specific mAbs were assessed for their ability to bind human and primate CEACAM5 protein by ELISA. Plates were coated with human or primate CEACAM5 protein, anti-hCEACAM5 mAbs were added to the plate and detected with rabbit anti-mouse IgG conjugated with horseradish peroxidase (Sigma; # A9044). The antibody binding was visualized by adding TMB-H2O2 buffer and read at a wavelength of 450 nm.

Row | EC50 | Binder
5 | 0.08 nM | B1
6 | 0.4 nM | B2
7 | 0.53 nM | B3
8 | 0.36 nM | B4

Target: T3, cCEACAM5, M. fascicularis CEACAM5 ECD …
Test: ELISA, coated CEACAM5
Description: as §1

Row | EC50 | Ratio c/h (EC50 on cCEACAM5 against EC50 on hCEACAM5) | Binder
9 | 0.05 nM | 0.6 | B1
10 | 0.45 nM | 1.1 | B2
11 | 1.18 nM | 2.2 | B3
12 | 3.72 nM | 10 | B4

target: T2, hCEACAM5, human CEACAM5 ECD (35-685); test: SPR (BIAcore 2000), mAb captured by anti-human Fc, antigen injected 1-500 nM
Description: (§2) The binding kinetics of humanized anti-CEACAM5_MAb2 variants, compared with chimeric MAb2, to recombinant human CEACAM5 (hCEACAM5) and cynomolgus monkey CEACAM5 (cCEACAM5) were determined by surface plasmon resonance assay using a BlAcore 2000 (BlAcore Inc., Uppsala, N.J.).
(§3) Briefly, a CM5 BlAcore biosensor chip was docked into the instrument and activated with 70 μL of 1:1 NHS/EDC at room temperature. A mouse anti-ahuman Fc IgG1 (BlAcore # BR-1008-39) (50 μg/mL in […] acetate buffer, pH5) were immobilized on the activated chips in all flow cells. The immobilization was carried out at a flow rate of 10 μL/min up to saturation. The chip was then blocked by injection of 70 μL of ethanolamine-HCl, pH8.5, followed by one wash with 3M MgCl2. To measure the binding of anti-CEACAM5 mAbs to the human CEACAM5 protein or cynomolgus CEACAM5 protein, antibodies were used at 1-5 μg/mL in BlAcore running buffer (HBS-EP). Antigens (human CEACAM5 or cynomolgus CEACAM5) were injected from 1 to 500 nM. Following completion of the injection phase, dissociation was monitored in a BlAcore running buffer at the same flow rate for 600 sec. The surface was regenerated between injections using 2×5 μL MgCl2 3M (2×30s). Individual sensorgrams were analyzed using BlAevaluation software.

Row | Kd | Binder
13 | 11.7 nM | B5
14 | 9.8 nM | B6
15 | 24.5 nM | B7
16 | 9.9 nM | B8
17 | 6.9 nM | B9

Target: T3, cCEACAM5, M. fascicularis CEACAM5 ECD …
Test: as above
Description: as §2, §3

Row | Kd | Binder
18 | 73.5 nM | B5
19 | 41.7 nM | B6
20 | 96 nM | B7
21 | 52.3 nM | B8
22 | 38.6 nM | B9
